B1: G4C/S10C/T172R/G173Q CocE with H6 tag (enzyme)
chain: MVDCNYSVACNVMVPMRDGVRLAVDLYRPDADGPVPVLLVRNPYDKFDVFAWSTQSTNWLEFVRDGYAVVIQDTRGLFASEGEFVPHVDDEADAEDTLSWILEQAWCDGNVGMFGVSYLGVTQWQAAVSGVGGLKAIAPSMASADLYRAPWYGPGGALSVEALLGWSALIGRQLITSRSDARPEDAADFVQLAAILNDVAGAASVTPLAEQPLLGRLIPWVIDQVVDHPDNDESWQSISLFERLGGLATPALITAGWYDGFVGESLRTFVAVKDNADARLVVGPWSHSNLTGRNADRKFGIAATYPIQEATTMHKAFFDRHLRGETDALAGVPKVRLFVMGIDEWRDETDWPLPDTAYTPFYLGGSGAANTSTGGGTLSTSISGTESADTYLYDPADPVPSLGGTLLFHNGDNGPADQRPIHDRDDVLCYSTEVLTDPVEVTGTVSARLFVSSSAVDTDFTAKLVDVFPDGRAIALCDGIVRMRYRETLVNPTLIEAGEIYEVAIDMLATSNVFLPGHRIMVQVSSSNFPKYDRNSNTGGVIAREQLEEMCTAVNRIHRGPEHPSHIVLPIIKRKLAAALEHHHHHH
modifications: oxidized with CuCl2: disulfide bridge between Cys 4 of one monomer and Cys 10 of the other monomer
notes: Cloned and expressed like the CC mutant (C-terminal His tag); Cross-linked homodimer; also called CCRQ; CCRQ-CocE
B2: G4C/S10C/L169K/G173Q CocE with H6 tag (enzyme)
chain: MVDCNYSVACNVMVPMRDGVRLAVDLYRPDADGPVPVLLVRNPYDKFDVFAWSTQSTNWLEFVRDGYAVVIQDTRGLFASEGEFVPHVDDEADAEDTLSWILEQAWCDGNVGMFGVSYLGVTQWQAAVSGVGGLKAIAPSMASADLYRAPWYGPGGALSVEALLGWSAKIGTQLITSRSDARPEDAADFVQLAAILNDVAGAASVTPLAEQPLLGRLIPWVIDQVVDHPDNDESWQSISLFERLGGLATPALITAGWYDGFVGESLRTFVAVKDNADARLVVGPWSHSNLTGRNADRKFGIAATYPIQEATTMHKAFFDRHLRGETDALAGVPKVRLFVMGIDEWRDETDWPLPDTAYTPFYLGGSGAANTSTGGGTLSTSISGTESADTYLYDPADPVPSLGGTLLFHNGDNGPADQRPIHDRDDVLCYSTEVLTDPVEVTGTVSARLFVSSSAVDTDFTAKLVDVFPDGRAIALCDGIVRMRYRETLVNPTLIEAGEIYEVAIDMLATSNVFLPGHRIMVQVSSSNFPKYDRNSNTGGVIAREQLEEMCTAVNRIHRGPEHPSHIVLPIIKRKLAAALEHHHHHH
modifications: oxidized with CuCl2: disulfide bridge between Cys 4 of one monomer and Cys 10 of the other monomer
notes: Cloned and expressed like the CC mutant (C-terminal His tag); Cross-linked homodimer; also called CCKQ; CCKQ tetramutant

Biological target: the molecule itself
Experiment: SDS-PAGE after oxidation with CuCl2
Experimental: Oxidation: Purified proteins were oxidized in 50 mM Tris pH 8.0 buffer containing 100 μm CuCl_2 overnight at 4° C. CuCl_2 was then removed by chelating it by adding 1 mM EDTA to the above mixture. Protein was further purified by passing it through Q Sepharose column and eluting off the column with 150-500 mM NaCl gradient. Fractions containing purified oxidized protein were identified by running on a SDS-PAGE gel under non-reducing conditions and pooled and concentrated to 5 mg/ml and snap frozen in liq N_2 and stored at −80° C.

| Protein | binding result |
| --- | --- |
| B1 | binds |
| B2 | binds |

Reference: patent publication US8501692 (REGENTS OF THE UNIVERSITY OF MICHIGAN, dated 2013)
